Test results as given in patent publication US7863432B2, “Nucleic acid molecules encoding AKAP18 delta, a splice variant of a protein kinase A anchor protein” (Forschungsverbund Berlin e.V., priority 2002, dated 2011).

Target: T1, interaction between AKAP18δ and RIIα (Homo sapiens, UniProt P13861)
T1 construct: expressed in transfected cells; host or cells: HEK293
Assay: FRET measurement of AKAP18δ-CFP / RIIα-YFP interaction in co-transfected HEK293 cells
Assay type: cell-based
Conditions: 100 μM
Experimental: The interaction of the expressed fusion proteins AKAP18δ-CFP and RIIα-YFP was measured in the HEK293 cells using the fluorescence resonance energy transfer (FRET) technology (schematic diagram in FIG. 3). The FRET signals result from an energy transfer from CFP to YFP, which is only possible when the two proteins are in close proximity to each other (<10 nm). Such close proximity of CFP and YFP is achieved only when AKAP186 directly binds the RIIα subunit. In this event, a FRET can be detected. […] A continuous decrease of the FRET signal during measurement indicates inhibition of the interaction between AKAP18δ and RIIα.
HEK293 cells (GBF, Brunswick) were cultured on polylysine-coated 30 mm cover glasses with 10% fetal calf serum (FCS) in Dulbecco's Minimal Eagle medium (DMEM) until a confluence of 40-60% was reached. […]
HEK293 cells were transiently co-transfected with the plasmids encoding RIIα-YFP and AKAP18δ-CFP. […] Fluorescence was excited at a wavelength of 425 nm for CFP and 488 nm for YFP. The emitted fluorescence was measured at a wavelength of 480/30 nm for CFP and 535/26 nm for YFP. The FRET of CFP to YFP was determined by excitation of CFP at a wavelength of 425 nm and measurement of the emission of YFP at a wavelength of 535/26 nm. Non-specific background fluorescence was determined in a region with no cells and subtracted. […]

T1 sequence (P13861 whole entry): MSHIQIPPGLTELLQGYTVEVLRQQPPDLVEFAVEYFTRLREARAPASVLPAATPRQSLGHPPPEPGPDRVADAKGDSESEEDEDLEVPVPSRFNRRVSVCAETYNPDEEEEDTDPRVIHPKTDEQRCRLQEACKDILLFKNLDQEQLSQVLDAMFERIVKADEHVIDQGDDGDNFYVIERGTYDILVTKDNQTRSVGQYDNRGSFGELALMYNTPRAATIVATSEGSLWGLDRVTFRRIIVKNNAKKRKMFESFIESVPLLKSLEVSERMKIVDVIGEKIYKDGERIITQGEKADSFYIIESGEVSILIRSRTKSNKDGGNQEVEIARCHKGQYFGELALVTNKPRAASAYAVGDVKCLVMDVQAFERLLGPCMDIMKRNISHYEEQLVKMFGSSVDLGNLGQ

S-Ht31: membrane-permeable peptide; sequence of the RII binding domain of AKAP Ht31, coupled to a stearate residue on the N terminus
mean value of the 535/480 ratio after addition of peptide (HEK293 cells, ratio >0.6 taken as positive FRET signal): about 0.35
decrease of the 535/480 nm ratio (FRET signal) (within 80 min, HEK293 cells co-expressing AKAP18δ-CFP and RIIα-YFP, ratio before addition about 1.3): more than 50%
